Here are results for 16 molecules from US7166568B1, “Compositions and methods to inhibit formation of the C5b-9 complex of complement” (Oklahoma Medical Research Foundation, priority 1998, dated 2007).

Where a chain is given by its changes, count along the chain named. “Also recorded” adds a separate entry of the source. Non-standard residues stand in square brackets, D forms with d. No end group written: not given here. allyl‑C = allyl-modified terminal Cys; allyl‑K = allyl-modified terminal Lys

T1: hu CD59 (Homo sapiens, UniProt P13987)
T1 construct: human erythrocyte membrane glycoprotein CD59 were purified; from tissue; host or cells: human erythrocyte membranes
T1 sequence (P13987 26-102): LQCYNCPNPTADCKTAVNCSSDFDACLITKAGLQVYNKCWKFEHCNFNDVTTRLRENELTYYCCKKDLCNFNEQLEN

T2: human erythrocyte membrane glycoprotein CD59 (purified) (human, UniProt P13987 26-102, biotinylated with NHS-LC-biotin where used as biotin-CD59)
T2 construct: Purified from human erythrocyte membranes; Used as biotin-CD59 in the microplate assay and put back into chicken erythrocytes (chE) for the hemolytic assays; it may hold a C-terminal GPI signal that the purified protein lacks; also called hu CD59; biotin-CD59
T2 sequence: T1 sequence (P13987 26-102)

B1: BSA-conjugated hu C9 peptide 359-384 (peptide)
peptide: [allyl‑K]CLGYHLDVSLAFSEISVGAEFNKDD[allyl‑C]
modifications: also: coupled to BSA
notes: Synthetic peptide, custom ordered, adsorbed to microplates as a BSA conjugate; also called BSA-peptide conjugate
B2: rb CD59: rabbit CD59 cloned by the applicant (GenBank AF040387), expressed recombinantly with TAG on SV-T2 cells (protein)
chain: EQKLISEEDLNSLMCYHCLLPSPNCSTVTNCTPNHDACLTAVSGPRVYRQCWRYEDCNFEFISNRLEENSLKYNCCRKDLCNGPEDDG
B3: hu CD59: Human CD59 antigen, 18–21 kDa plasma membrane protein, inhibitor of the C5b-9 membrane attack complex; expressed recombinantly with TAG (protein, UniProt P13987 26-102, looked up)
CD59 glycoprotein: T1 sequence (P13987 26-102)
modifications: TAG epitope tag
B4: Ch6: hu CD59 residues 42–58 substituted into rb CD59 (protein)
chain: B2 chain with Y54F, D56H, E60N, F61D, I62V, S63T, N64T, E67R, S70E
B5: Ch6R: rabbit 42–58 substituted in hu CD59 (protein)
chain: EQKLISEEDLNLQCYNCPNPTADCKTAVNCSSDFDACLITKAGLQVYNKCWKYEDCNFEFISNRLEENSLTYYCCKKDLCNFNEQLEN

The first test addresses T1, hu CD59. Briefly: Inhibitory function of CD59 towards recombinant C9 constructs (hemolysis of C5b-8 chE with or without membrane CD59). Format: cell-based. To be noted: chE with hu C5b67 and rb C8, 0 or 750 ng/ml CD59; compared with hu C9 and rb C9. How it is done:
(§1) Analysis of the inhibitory function of CD 59 towards recombinant C9 constructs—Hemolytic activity of each C9 construct was assayed using as target cells chE that were reconstituted with purified hu CD59, as described by Husler, et al., (1995). chE were washed extensively and suspended in GVBS, and the membrane C5b67 complex assembled by mixing cells (1.4×10^9/ml) with C5b6 (13 μg/ml) followed by addition of C7 (1 μg/ml). After 10 min., the C5b67 chE were diluted to 1.4×10^8/ml in GVBE and incubated (10 min. 37° C.) with 0 or 750 ng/ml CD59. In each case, the final concentration of Nonidet P-40 was less than 0.002% (v/v). After washing in ice-cold GVBE, 2.8×10^8 of these cells were incubated (37° C.) in a total volume of 100 μl with 1 ng rb C8 plus, between zero and 50 ng of recombinant C9, serially diluted in Opti-MEM I. Hemolysis was determined after 30 minutes at 37° C., with correction for nonspecific lysis, determined in the absence of C9. In each experiment, the inhibitory activity of CD59 towards each recombinant C9 construct was determined from the reduction in complement lysis of those cells reconstituted with CD59, versus the identically-treated cells omitting CD59, measured at the midpoint of the C9 titration (i.e., 50% hemolysis). In order to directly compare results obtained in experiments performed on different days, data for each recombinant C9 construct were normalized to results obtained in each experiment with hu C9.
For the molecule “chimera #1: hu/rb C9 chimera R1-338H334–415R425–536”, the “sensitivity of the C9 construct to inhibition of MAC lytic activity by membrane CD59” value is “indistinguishable from hu C9 in its sensitivity to inhibition by CD59”.

On to “chimera #9: hu/rb C9 chimera H1-357R363–424H416–538”, for which the “sensitivity of the C9 construct to inhibition of MAC lytic activity by membrane CD59” value is “did not completely eliminate interaction with CD59”. Consider “Mutant hu C9: recombinant hu C9 expressed with Ala substitutions at Cys359 and Cys384”, for which the “sensitivity of the C9 construct to inhibition of MAC lytic activity by membrane CD59” value was “did not significantly affect”.

Turning to “chimera #4: hu/rb C9 chimera R1-363H359–415R425–536”, the “sensitivity of the C9 construct to inhibition of MAC lytic activity by membrane CD59” value was “indistinguishable from hu C9”. “chimera #3: hu/rb C9 chimera H1-357R363–536”: the “sensitivity of the C9 construct to inhibition of MAC lytic activity by membrane CD59” value was “indistinguishable from rb C9 and only weakly inhibited by CD59”. For the molecule “chimera #8: hu/rb C9 chimera H1-333R339–424H416–538”, the “sensitivity of the C9 construct to inhibition of MAC lytic activity by membrane CD59” value was “indistinguishable from rb C9 and virtually unaffected by the presence of membrane CD59; also recorded: completely eliminated hu-selective interaction with CD59”. The same measure, in the same setting: the value for “chimera #12: hu/rb C9 chimera H1-357R363–393H385–538” was “did not significantly diminish CD59's capacity to inhibit the lytic activity of C9”.

In the case of “chimera #5: hu/rb C9 chimera R1-363H359–391R401–536”, the “sensitivity of the C9 construct to inhibition of MAC lytic activity by membrane CD59” value is on record as “conferred full recognition by CD59”. Regarding “chimera #7: hu/rb C9 chimera R1-363H359–384R394–536”, the “sensitivity of the C9 construct to inhibition of MAC lytic activity by membrane CD59” value is recorded as “small but significant reduction in inhibition of MAC lytic activity by CD59”.

Take “chimera #6: hu/rb C9 chimera R1-400H392–415R425–536”: the “sensitivity of the C9 construct to inhibition of MAC lytic activity by membrane CD59” value was “failed to confer any recognition by CD59”. Take “chimera #2: hu/rb C9 chimera R1-363H359–538”: the “sensitivity of the C9 construct to inhibition of MAC lytic activity by membrane CD59” value is “unaffected”.

Another test has as its target T2, human erythrocyte membrane glycoprotein …. Briefly: microplate assay: BSA-peptide coated wells, biotin-CD59 detected with Vectastain, OD 405 nm; corrected with a 20-fold excess of unlabeled CD59.
Details: not given
How it is done:
Briefly, the BSA-peptide conjugate was adsorbed to 96 well polyvinyl microplates by overnight coating at 5 µg/ml in 0.1 M sodium bicarbonate, pH 8.5. After blocking with 1% (w/v) BSA, wells were washed and incubated (4 hrs., 37° C.) with between 0.5 and 1 µg/ml biotin-CD59. After washing, the bound biotin-CD59 was detected with Vectastain (Vector Labs, Burlingame, Calif.), developed by addition of p-nitrophenyl phosphate (2 mg/ml) and optical density recorded at 405 nm (VMaxMicroplate Reader, Molecular Devices, Inc.). In all experiments, correction was made for background adsorption of biotin-CD59 to BSA-coated wells (no peptide) and for nonspecific binding of biotin-CD59 to peptide, determined in the presence of a 20-fold excess of unlabeled CD59. As a positive control for specific binding, comparison was made in each experiment to wells coated with 2 µg/ml hu C9.
Consider B1, for which the binding result is reported as “binds”.

The next test addresses T3, hu C5b-9 (hu C5b67 with hu C8 and hu C9) (Homo sapiens, UniProt P02748+P07357).
T3 construct: human complement proteins (C5b7, C8 and C9) and rabbit complement proteins C8 and C9 were purified; from tissue; host or cells: human serum/plasma (C8 and C9 purified; C5b67 deposited from C8-depleted human serum)
Briefly: Assay of MAC inhibitory function of recombinant CD59 on transfected SV-T2 cells, hu C8 and C9. Type of test: cell-based. To be noted: CD59 construct expressed on SV-T2 cells; hu C5b67, 2 μM hu C8 and 5 μM hu C9; BCECF dye release. How it is done: (§2) Expression of CD59 constructs in SV-T2 cells—SV-T2 cells were transfected with hu, rb, or chimeric TAG-CD59 pcDNA3 by electroporation as previously described (Zhou, Q., Zhao, J., Hüsler, T., and Sims, P. J. (1996) Mol. Immunol. 33, 1127–1134). After 48 hr, stable transfectants were selected with DMEM complete medium containing 1 mg/ml geneticin for 10 days. If episomal replication in the transfected cells was desired, 8×10^6 SV-T2 cells were transfected with 120 μg plasmid DNA by electroporation using GENE PULSE™ (Bio-rad) at 360 V and 500 μF (Zhou, Q., Zhao, J., Hüsler, T., and Sims, P. J. (1996) Mol. Immunol. 33, 1127–1134). Geneticin-selected cells were stained with mAb 9E10 against TAG epitope followed by FITC-conjugated goat antibody against mouse IgG, and sorted by flow cytometry (FACStar Plus; Becton Dickinson). Individual clones were then obtained by limiting dilution in DMEM containing 0.5 mg/ml geneticin. Comparison was made to clonal cell lines derived by transfection with pcDNA3, lacking insert (vector-only controls).
Measurement of cell surface TAG-CD59—The cell surface expression of each TAG-CD59 construct in transfected SV-T2 cells was quantified by the binding at saturation of mAb 9E10 (against TAG epitope) as previously described by Zhou, Q., Zhao, J., Hüsler, T., and Sims, P. J. (1996) Mol. Immunol. 33, 1127–1134. Following growth to near confluence, cells were detached and incubated for 30 min at 23° C. with mAb 9E10 (100 μg/ml) in HBSS containing 1% BSA. After washing with HBSS containing 1% BSA, the cells were incubated (20 min at 23° C.) with FITC conjugated goat anti-mouse IgG at a final concentration of 10 μg/ml. The fluorescence was determined by flow cytometry (FACScan, Becton Dickinson) as described previously by Zhou, Q., Zhao, J., Hüsler, T., and Sims, P. J. (1996) Mol. Immunol. 33, 1127–1134.
Assay of MAC inhibitory function—The complement-inhibitory activity of recombinant CD59 expressed on the transfected SV-T2 cells was evaluated by minor modification of methods previously described (Zhou, Q., Zhao, J., Hüsler, T., and Sims, P. J. (1996) Mol. Immunol. 33, 1127–1134, and Zhao, J., Rollins, S. A., Maher, S. E., Bothwell, A. L., and Sims, P. J. (1991) J. Biol. Chem. 266, 13418–13422). For cell clones expressing each chimeric CD59 construct, huC5b67 was deposited on the plasma membrane and susceptibility to the lytic activity of either hu C8 and C9 or rb C8 and C9 was measured and compared to identically-treated clones expressing wild-type hu or rb CD59. […] MAC-mediated cell lysis was determined from the measured release of BCECF dye from the cytoplasm, with correction for non-specific dye leak from matched controls omitting C8 and C9, as previously described by Zhou, Q., Zhao, J., Hüsler, T., and Sims, P. J. (1996) Mol. Immunol. […]
Regarding B2, the “MAC-inhibitory function towards hu C5b-9 (protection from lysis)” value is on record as “virtually no inhibition of the lytic action of MAC was observed”. As to B3, the “MAC-inhibitory function towards hu C5b-9 (protection from lysis)” value was “nearly completely protected from lysis by hu C5b-9”.

The same test, now with this note: SV-T2 clones; hu versus rb C8 and C9 used to assemble the C5b-9 complex.
B4: the “species-selective complement inhibitory function compared with full-length hu or rb CD59” value was “functionally indistinguishable from native hu CD59”. On to B5, for which the “species-selective complement inhibitory function compared with full-length hu or rb CD59” value is reported as “functionally indistinguishable from rb CD59”.

A further test deals with chE containing membrane C5b-8. Briefly: Hemolytic titration of recombinant C9 constructs against chE containing membrane C5b-8. Type of test: cell-based, chicken.
Details: not given
How it is done:
as §1, with “In order to directly compare results obtained in experiments performed on different days, data for each recombinant C9 construct were normalized to results obtained in each experiment with hu C9.” left out
On to “Mutant hu C9: recombinant hu C9 expressed with Ala substitutions at Cys359 and Cys384”, for which the “hemolytic activity of the C9 construct” value is given as “did not significantly affect”.

For the next test, the target named is T4, C5b-9 assembled from rb C8 and C9 (Oryctolagus cuniculus, UniProt P48747+P98136).
T4 construct: rabbit complement proteins C8 and C9 were purified; from tissue; host or cells: rabbit serum/plasma (C8, C9); C8-depleted human serum (C5b67)
Briefly: Assay of MAC inhibitory function of recombinant CD59 on transfected SV-T2 cells, rb C8 and C9. To be noted: CD59 construct expressed on SV-T2 cells; hu C5b67, 4 μM rb C8 and 5 μM rb C9; BCECF dye release. Type of test: cell-based, rabbit. How it is done: as §2, with “Comparison was made to clonal cell lines derived by transfection with pcDNA3, lacking insert (vector-only controls).” left out
Measurement of cell surface TAG-CD59—The cell surface expression of each TAG-CD59 construct in transfected SV-T2 cells was quantified by the binding at saturation of mAb 9E10 (against TAG epitope) as previously described by Zhou, Q., Zhao, J., Hüsler, T., and Sims, P. J. (1996) Mol. Immunol. […] The fluorescence was determined by flow cytometry (FACScan, Becton Dickinson) as described previously by Zhou, Q., Zhao, J., Hüsler, T., and Sims, P. J. (1996) Mol. Immunol. […]
On to B2, for which the “MAC-inhibitory function towards C5b-9 assembled with rb C8 and C9 (protection from lysis)” value was “conferred a selective resistance to lysis by C5b-9 assembled from rb C8 and C9”. Consider B3, for which the “MAC-inhibitory function towards C5b-9 assembled with rb C8 and C9 (protection from lysis)” value is on record as “protective effect of hu CD59 was not observed”.
